Data as given in the DeepSol protein solubility set.

test: soluble on expression in E. coli; label from the status in PepcDB or PDB records

Row | Sequence | soluble on expression in E. coli
1 | MGSDKIHHHHHHAEDYMETDKGHDTLTLTVNQQEIVLNEKNHTQEALTLSWTTGTNYGSGNRISYTLEIAKAGTDFARAYSVDLGTGTYQWTKKTEELNQFLNTQLGVGYAEKVSLEARITATVAGMEEKEQRATVALDVTTYQPVTPTLYLIGEAAPNGWSADQATPMERTDNGQFTWTGKLNTGVFKFITTLGEFLPSYNRDAAAGEELRLIYRTSGDEPDEPFTVSKEATYIVKVDLLDLTMTMTETENIGWRFEEFYIVGSFTGDNGWGFEALSKDAVQMNLFHYGAVIPWKADGDFKFTSVTDFGQSDAFFHPTEGNAPYTSTSVVLGGEDNKWQMKESECGKAYKVLFLTAKGKEKMLMRPFTPYEGLYLVGDATPNGWSIDNATPMAKSADSPYIFTWSGTLNTGEMKISCDKQSDWNGDWLMADKSGKAPTGEVETALFTSKTDAELKNMYPDTDLGSLDNKWNIQEAGSYRITIDQLKETISIVKQ | not soluble
2 | MGSDKIHHHHHHAKESEQKVTIDSAKHEKHTKDKEENNSANTVFFDKINDLLVASVKEFEGTVGISYLDLETGEQRSVNGQHEFYTASTIKVPLTMLVADTVASGQKKWTDLIPYNAEEDYEEGTGIIAYNIQPEYPLKTLQEYAITYSDNIAKNMLYDTLGGDAKAKREMYQRYLHKTPSIEEPQFSSEDALVILQKLYTEKATKPDYQAIYDSMKQSVFHERMETPTTQGKVAHKIGSYDEFIHDMGILETPHPFALAIFTKGPDNAKSAAFIASVTDKLWQLQVSEYPNQ | not soluble
3 | MGSDKIHHHHHHALLGTTGLLHAPTADMQRDKTFLFGGNYLNTHPLSTHFRSSEVGYTFNYYINITIFPWLEVSYICTLVHADHGSTYFPEQSWGKFTNQDRAFSARLRLWKEGWWKEWTPQIVLGLDDPTSHADHGGGELVSGNTSGSNNYATRYYLAVTKHLDVQNIGEWGIHAAFVYGNAKGIEHYKRPSFGTNFRFQLLGDQPLIKVVNNLNLMAEYDARTVNIGAHYQLWKDHINLIAELNNGKYFSGGIYFKIHLK | not soluble
4 | MGSDKIHHHHHHAQNNADDKYEILSLTDMFSLFKDSKNSVPQDYDEIYVPGYFYEPSFMYPSPLKKEFCCVAQWRIPNRNCKYLFLEDIFPQNKDSLKQASLELQKIKEKYGMRESAMYQDVPAGYNGIIAKWFTGRLFVLHCPRKLFNTVVSKKASLISIHKGRISDEKQITPDEGKFESSCFPQKGGMILIREDGCWYDDIKRNIDFLISPLINENFPTEFSKHVGREYSFLLEVVPKTGQIIPHLLLPKTLSTDEKMIVSYLEKQIRKFPENSFGPLITIDKKMLYGRYLKFIVKDEKFKIEDYLEY | not soluble
5 | MGSDKIHHHHHHAQQKVEILPFGNMDQWVTREIKESGIIGGNTKKVYAIGPTETIVGAKPYANKGGSPWGTSNVMARVSGITKTNTSVFPETRGDGFCARLDTRMESVKVLGIVDITVLAAGSMFLGTVHEPIKSTKNPNKMLQMGIPFTDRPSAIQFDYKVKMSDRENRIRATGFSKITDVPGKDFPAVILLLQKRWEDAKGNVYAKRIGTMVNYYYHSTDWKNGSKYDIMYGDITKDPAYKAHMMRLQASEYFTVNSKGESVPIHEVAWGEADDVPTHMILQFTSSHGGAYIGSPGNSLYIDNVKLIY | not soluble
6 | MGSDKIHHHHHHAQTYQQLSEKAIEYIEMDSLSKAEELLLQALKLEPKNAKNAMLFSNLGLVQRRLGEYDKALESYSFALNFAPLAVPILLDRAAINLEMGNTDRAYTDYCQVLDEDKQNKEALLMRAYIYVLRRDYPAARIDYNRLLEIDPQSYSGRLGLATLEQKEGKFKEALEILNKMITATPEDATLYIARADVEREMKHEDLALVDLEEAIRLNPSSADAYLLRGNIYLTQKKKALAKMDFEKAISLGIPPADLHEQLKQCK | not soluble
7 | MGSDKIHHHHHHCDDFLDSFPQDTVTNENFWKSKEDADKVLVDIYASLLPKDAIFFDEAMSDNAYLVWDWWGGAQQVANGSYTTSGEIPTNRWNGSYEVIRKCWFLLEGIEKIEDISEQDKNKIIGETYFMLAYNYYVLTSYFGDVPLVTKTLAIPESKQLVRTPKAEVVDYAINKLKEAAVMLEGLSQEKGRVTADACRFLIARMYLYNGDYSNVLETVKLLEGKYQLYREGDTPYEDLFSGVAENSCEVILSVVCDKRVGEIYTSHGGNGIMLLKGITGEDPYRGVTPSGSLVDAYPMADGRLIHEAGSSYDPKKPYEGRDPRFYQSIVYPTGQIKYLDVETGTVKERLYDPEDPTTVPEHQYNYSQPSATGYMWNKYIDYSVYAMNSVWDCTNDIIVFRYADVLLMKAEALLQTKGESAKEEVCNLIDQLRDRCSCGRVHRENYNSKDELMELLKNERRIELANEGLRYMDLIRWKDAEKNTIVTGVGLTGQMYGAYMRKDGVGKDDKTVDVDNTPRRYIETRYFNASKGYLFPIPQKERDLNPNLTQNPNW | not soluble
8 | MGSDKIHHHHHHCDLERYPLTDLSEETFWNSESNAELALTSLYRGSLTDGVEYNPSDWWSYHGMIMMEHLSDNAFDRRGENNPFFKISSGNLTADNAFIKRYWETSYKRIGYCNRFLVGIQNSSESEKKTRMIAEARFLRATQYFYLASYFKNVPLVENVLTGEEANNVTKTSQADILKWCVTEFTAAAADLPRFSAIPAGEAGRACKQAALAFLGRTCMLQKDWKSGAKAFHDIMELGDNAINANYQELFYPSTGTSNKENIFYIQYLENYLGTGLPQHALSAKDGGWSLVNPAADLYESYEFKDGTPFSYDDPRYDPSNLGKDRDPRLDYTIYYNGAIFMGTEYKMSPDYSAAKKEKLDYTSEASRTGFMMRKYFEESTPINDVQSANGLTPVIRYAEVLLGYLECLVEDNQTITQGILDETINAVRGRASVNMPPVTEVTPAKLREIVRHERRIELAMEGIRYWDIMRWGIAHEVLSQKIWGAPYPGSTQYATTTKEVDPTGNYRWYVGKRAFRNPTDYTWPIPQSEQNINPNLRD | not soluble
9 | MGSDKIHHHHHHCGVEEKTEVQLLKEMPKPKAMTIDPSLSQKEATEMVHAAQRFYAFWDTGKEELIPQTVTENFFDHTLPKGRPQGTEGLKFAAQNFRKIVPNIHCEIEDLLVVGDKVTARLSFTGTHNDKKIDFFAIDILHVKDGKITEDWHLEDNLTLKQQLGLIAEE | not soluble
10 | MGSDKIHHHHHHCPVNWVEFGGSCYWFSRDGLTWAEADQYCQLENAHLLVINSREEQDFVVKHRSQFHIWIGLTDRDGSWKWVDGTDYRSNYRNWAFTQPDNWQGHEQGGGEDCAEILSDGHWNDNFCQQVNRWVCEKRR | not soluble
11 | MGSDKIHHHHHHCSDNDSDLTIYIPDAGTAVKANFYIEDEPYVQTFNVAVTPETYPQLTEYGLPNDAVVHLQADPGKVDEYNAKNGTEYELLPEAAYDLTEEVLVKAGTPKSEEAVITVHAKGNIEAFKEYLLPVSITSVEGAVADHCCQTIYFIFRGSMDASNMELLDRTGWEALSASSEEPKEGDWGHSGLKEACLDGDLNTFWGTDWSTQHPQPPHWIVIDLKKTTHIQGFACQAREEGYDGPKEVTVEVSDDNATWTVAAKFKDIPAQGEFRSFLPAAVDGRYLKVTITAVNGGPHVTISELNLF | not soluble
12 | MGSDKIHHHHHHCTHKYKIEGTSSVNGLDGKMLYLKTLRDGEWTKLDSAEVVHGSFSMKGKIDSVQMTTLYMDDESVMPVVLESGKIVITISNTDLKAVGTPLNTALYDFIAKKNAMEESIGELERKETRMVMDGADLEEVHEQLLAEGDSLMKAMNQYVKTFISDNYENVLGPNVFIMLCSSLPYPIMTPQIDDIIKDAPYSFKSNKMVREFLTKAKENMQLIEEHQRMQQNVGSKK | not soluble
13 | MGSDKIHHHHHHDDSVFTVMDDPSAAKKPFEGVVNAGYLAQSGNTKSSSMTADSTLTWYGNTTAWSLWGNASNTSSNDERSSEKYAVGGRSRYNLTDMNYVFGQGSWLTDRYNGYQQRDVVTAGYGRQILNGPVHSLRFEFGPGVRYDEYTDGDTDTQPLGYASGTWAWQMTDNAKFSQGVSVFGAEDTTVNSESALNVAINAHFALKVAYNVTWNSEPPASAPEHTDRRTSLSLGYKM | not soluble
14 | MGSDKIHHHHHHEDDLSAKAWLKNMSQAMHDKQYKTSIIQLQADHIRPLVYIHGIVDNKEVALLEYLNGPPKNAVRVGNTVTFIEHDQPAYSVVAPRIQGIWPAALAGDLSQLEKGYQFVIGGRGRIAGRPGQMIRLLANDDNRYDAQVWIDMDTYLPLRFDSLNKEKQLLEQTMVIELIELTEPANILIEAAKQEWPAVMNQAERTDGKNWQFTWLPEGFDVVVRDHHRLIGIHEPVEYVALTDGLANISVYVARAGENPMPNELLIRNGLSMVVVKVGTLEVVAIGKVPSETLDKIANSLVLK | not soluble
15 | MGSDKIHHHHHHEEAEAHQKPVEIQPETVKIARNSELTIVPLYTPYQKYLKASLKTDDPEMDKKYYAKYVLSYIDEIGEQEKFSTADLKGNFMLQSTSYEQELLNRIDTLMKQHDKIKEVITENYIAAHKILPKKKSTIFIVPSNSDFPTMSESLAGVTGAAYKDAFVLYLDQTFDKNVLAYTIAHEYHHLILHDTPDFKISSVLKSVIVEGKADAFADRIVKGVSPPWDVPMDNTTKKHVAGLVNNYETTFNDVTFGNEQKDIPRWSNYILGRDILNHYLKSNPNLSIKEWTYKDEHEILKDYKYQNILE | not soluble
16 | MGSDKIHHHHHHENLYFQGMFRPQDDFTYLMPVHFGGGKFDPETLVTQKATALSLSFETERDLLENYIPEGFELLAPEVQVAFNKFTEINWLHGGQYNLINVAAPVRFHGKKDELDGAYTLVVWENKTAPILGGREQTGIPKIYADIEDLHIVRPHFATTVSYEGNTFLNMDFEATGSITGRDLDALKSQFLTMNTLGWRYIPKVGAPGAELSQFVLYPQGMEVETAEVGKGSLKWTELTPMQSPAQYYIVNSLASLPIKRVTQAVLVEGRAILRAMGARVIE | soluble
17 | MGSDKIHHHHHHENLYFQGMKQIPQDFRLIEDFFRTRRSVRKFIDRPVEEEKLMAILEAGRIAPSAHNYQPWHFLVVREEEGRKRLAPCSQQPWFPGAPIYIITLGDHQRAWKRGAGDSVDIDTSIAMTYMMLEAHSLGLGCTWVCAFDQALCSEIFDIPSHMTPVSILALGYGDPTVPPREAFNRKTIEEVVSFEKL | soluble
18 | MGSDKIHHHHHHEQTVKIGILSDMSGPYSDMGGPGSVAAAQLAIDECLAKECKGMKIELLSIDHQNKPDIGVQKAREWADVNKVNAIADLTNSAVALGVQKLTLDHDFVAMYSGPATTKLTNEDCSATGFHWMFDTYALAAGSAQAITKMGGKSWYFLTVDYAFGHSLEADSMAMVKQLGGTVAGSVRHPLNTADMSSFLLQAQSSKAQVVALANGAADTINAIKTAREFGIVQGGQQVVPLLIFLTDIRSLGLEIAQGLTFTEGFYWDQDDQARAFAARFQKAFKDRKPTMVQAGTYSSVLHYLHAVAAAKTTEAKAVSAKMREMPISDAVMRNAAIRPDGRVIHDMLLVKVKSPAESKGDWDFYTIQATIPAAEAFKPLANSACPTVKK | not soluble
19 | MGSDKIHHHHHHGCSRRDILDDYPVSGVEVRLDWSGVTEKLPEGVRIIFYPKDEKGRKIDTYLSVTGGEVKVPSGHYAVVIYNYDTETVLIRGEESYETIQAYTNFCKLGIAGTEKMVWGPDPLYVVNIDDLDIQNSEETLILKLKPKLVIRTYSFSIKVQGLSNVSNVIGSIGGMADHYFLGKAYAMCDDYPINIDLNVKAGKIEGVFTTFGLPEAIITRLEIKLPVMMNLMIIKVDNSVQEVKINITEAVQEPTGGGEGGEGEETKPPALVEVEIEDEIKVDDVETPPSGGGGIGGDVGDWDDETNVELPVG | not soluble
